Test: yeast display, Sf9 membrane polyspecificity reagent, FACS + sequencing; frameworks hold sequencing errors
Procedure, shortened: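 Nanobodies from a synthetic yeast display library (Saccharomyces cerevisiae BJ5465), induced 36–48 hours with galactose, were stained 1 hour at 4 °C with 10% biotinylated, detergent-solubilized Sf9 membrane reagent, enriched on streptavidin microbeads, then FACS-sorted. Anti-HA (expression) and streptavidin (reagent binding) fluorescence set low and high (top ~1%) gates. Polyreactivity labels come from the gate of origin. Genes were colony-PCR amplified, MiSeq 2 × 250 sequenced and filtered by CDR length.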
With “QVQLVESGGGLVQAGCSLRLSCAASGRTFYTVYARGWYRQAPGKERELVAAITKDGTTTYYADSVKGRFTISRDNAKNTVYIEMNSLKQEDTAVYYCNADVSQPWGGGEYNYWGQGTQVTVSS” the “polyreactivity (PSR sort gate)” value was “high polyreactivity”. With “QVQLVESGGGLVQAGCSLRLSCAASGSIFALYDMGWYRQAPGKERELVAAISYRGGRTYYADSVKGRFTISRDNAKNTVYLQMNSLKPEDTAVYYCATDFPGNFDYWGQGTQVTVSS” the “polyreactivity (PSR sort gate)” value was “low polyreactivity”. In the case of “QVQLVESGGGLVQAGCSLRLSCAASGSIFGWYAMGWYRQAPGTERELVAAITLIGGSTYYADSVKGRFTISRDNAKNTVYLQMNSLKPEDTAVYYCNAVWYWGDMDYWGQGTQVTVSS”, the “polyreactivity (PSR sort gate)” value is reported as “low polyreactivity”. For “QVQLVESGGGLVQAGCSLRLSCAASGSIFKQNTMGWYRQAPGKERELVAAISSGGSTYYADSVKGRFTISRDNAKNTVYLQMNSLKPEDTAVYYCAAVTVIGGEYDYWGQGTQVTVSS”, the “polyreactivity (PSR sort gate)” value was “low polyreactivity”. With “QVQLVESGGGLVQAGCSLRLSCAASGSIFKRYTMGWYRQAPGKERELVAAISSRGGSTYYADSVKGRFTISRDNAKNTVYLQMNILKPEDTAVYYCNTKLHDGYGGWRYDYWGQGTQVTVSS” the “polyreactivity (PSR sort gate)” value was “high polyreactivity”. For “QVQLVESGGGLVQAGCSLRLSCAASGSIFTNYGMGWYRQAPGKERELVADIRARSGSTYYADSVKGRFTISRDNAKNTVYLQMNSLKPEDTAVYYCAARRTSYRFDYSAGYRYGYWGQGTQVTVSS”, the “polyreactivity (PSR sort gate)” value was “high polyreactivity”. For “QVQLVESGGGLVQAGCSLRLSCAASGSIFVNKAMGWYRQAPGKERELVAAISSRSSRTFYADSVKGRFTISRDNSKNTVYLQMNSLKPEDTAVYYCAARRRLAWGQGTQVTVSS”, the “polyreactivity (PSR sort gate)” value was “high polyreactivity”. With “QVQLVESGGGLVQAGCSLRLSCAASGSIFYGYAMGWYRQAPGKERELVAAISYSGDRTYYADSVKGRFTISRDNAKNSVYLQMNSLKPEDTAVYYCAAQRRYGDDYWGQGTQVTVSS” the “polyreactivity (PSR sort gate)” value was “high polyreactivity”. With “QVQLVESGGGLVQAGCSLRLSCAASGSIVDPYAMGWYRQAPRKEREWVAAISGSGGSTYYADSVKGRFTISRDNAKNTVYLQMNSLKPVDTSVYYCAAADAWWGRRYKYYHWGQGTQVTVSS” the “polyreactivity (PSR sort gate)” value was “low polyreactivity”. For “QVQLVESGGGLVQAGCSLRLSCAASGSIYPYAMGWYRQAPGKERELVDAISFSDDRTYYADSVKGRFTISRDIAKNNVYVQMNSLKPEDTAFYYCDAYYFSADEYEYVYWGQGTQVTLSS”, the “polyreactivity (PSR sort gate)” value was “high polyreactivity”. For “QVQLVESGGGLVQAGCSLRLSCAASGSTFGENAMGWYRQAPGKERELVAVITSDTSTYYADSVKGRFTISRDNAKNTVYLQMNSLKPEDTAVYYCAADWGGLWFWYEYWGQGTQVTVSS”, the “polyreactivity (PSR sort gate)” value was “low polyreactivity”. With “QVQLVESGGGLVQAGCSLRLSCAASGSTFRPYAMGWYRQAPGKERELVAAINNSGGSTYYADSVKGRFTISRDNAKNTVYLQMNSLKPEDTAVYYCAAEWYYYFIIMNYWGQGTQVTVSS” the “polyreactivity (PSR sort gate)” value was “high polyreactivity”. In the case of “QVQLVESGGGLVQAGCSLRLSCAASGSTFYAYTKGGYRQAPGKERELVAAISWSDGTTYADSVKGRFTISRDNAKNTVYLQMNSLKPEDTAVYYCATDDVGPGLGYNYWGEGTQVTVSS”, the “polyreactivity (PSR sort gate)” value is reported as “low polyreactivity”. With “QVQLVESGGGLVQAGCSLRLSCAASGSTFYYNAMGWYRQAPGKERELVAAITFTGGSTYADSVKGRFTISRDNAKNTVYLQLNSLKPEDTAVYYCAATIEGHDYLGTGYDYWGHGTQVTVSS” the “polyreactivity (PSR sort gate)” value was “low polyreactivity”. In the case of “QVQLVESGGGLVQAGCSLRLSCAASGSTLNSYFMGWYRQAPGKERELVATIRSGSSTNYADSVKGRFTISRDNAKNTVYLQMNILKPEDTAVYYCAADAYSLCYDSWGQGTQVTVSS”, the “polyreactivity (PSR sort gate)” value is reported as “low polyreactivity”. With “QVQLVESGGGLVQAGCSLRLSCSASGSIFYSYAMGWYRQAPGKERELVAAITSVVSTNYADSVKGRFTISRDYAKNTVYLQMNRLKTEDTAVYYCAAGYLRLYYVCLDDSYGYDYWGQGTQVTVSS” the “polyreactivity (PSR sort gate)” value was “low polyreactivity”. With “QVQLVESGGGLVQAGCSLRLSCSASGSTFVAYAMGWYRQAPGTERELVAANTTGGSTNYADSVKGRFTISRDNAKNTVYLQMNSLKPEDTAVYYCATDSSTTWLRRATSKGPGEYWGQGTQVTVSS” the “polyreactivity (PSR sort gate)” value was “low polyreactivity”. For “QVQLVESGGGLVQAGCSLRLSSAASGFIYYRYAMGWYRQAHGKERELVAAISRSGGSTYYADSVKGRFTISRDNAKNTVYVQMNRLKPEDTAVYYCAADSGSLAPGNDYWGQGTQVTVSS”, the “polyreactivity (PSR sort gate)” value was “high polyreactivity”. With “QVQLVESGGGLVQAGCSLRLTCAASGFIYLSYGMGWNRQAPGKERELVASITSDGGSTYYADSVKGRFTISRDNAKYTVYLQMNSLKPEDTAVYYCAADSVSPWYYGWYYRYRGYGYCGQGTQVTVSS” the “polyreactivity (PSR sort gate)” value was “low polyreactivity”. For “QVQLVESGGGLVQAGCSVRLSCAATGSSFVDNAMGWYRQAPGKERELVAANDGSADSTYYADSVKGRFTISRDNAKNTVYLQLNSLKPEATAVYYCAAVDYWTKFDYWGQGTQVTVSS”, the “polyreactivity (PSR sort gate)” value was “low polyreactivity”. For “QVQLVESGGGLVQAGDSLRLSCAASGLTFTYYAMGWYRQAPGKERELVAAITGSGDRTYYADSVKGRFTISRDNAKNTVYLQMNSLKPEDTAVYYCARDRPGRATGFDYWGPGTQVTVSS”, the “polyreactivity (PSR sort gate)” value was “high polyreactivity”. In the case of “QVQLVESGGGLVQAGGCLRLSCAASGRTLGAYAMGWYRQAPGKEREFVASITYGGRTCYADSVKGRFTISRDNAMNTVFLQMNSLKPEDSAVYYCASKLPYRWYDYWGQGTQVTVSS”, the “polyreactivity (PSR sort gate)” value is reported as “high polyreactivity”. In the case of “QVQLVESGGGLVQAGGCLRLSCAASGSIFAPIAMGWYRQAPGKERDLVAAITSGVGSTDYADSVKGRFTISRDNAKNNVYLQMNSLKPEDTAVYYCAADSSYLTYWEYDYWGQGTQVTVSS”, the “polyreactivity (PSR sort gate)” value is reported as “low polyreactivity”. In the case of “QVQLVESGGGLVQAGGCLRLSCAASGSIFWGYAMGWYRPAPGKERELVAAITDSGGRTYYADSVKGRFTISRDNAKNTVYVQMNSQKPEDTAVYYCAADYYSQYYYYAVPDRDYWGQGTQVTVSS”, the “polyreactivity (PSR sort gate)” value is reported as “low polyreactivity”. In the case of “QVQLVESGGGLVQAGGCLRLSCAPSGFIFGGYAMGWDRPAPGKEREVVAAISSSGGSTYYADSVKGRFTISRDNAKNTVYLQMNSLKPEDTAVYYCAARIQSVSSGRWFDYWGQGTQVTVSS”, the “polyreactivity (PSR sort gate)” value is reported as “high polyreactivity”. For “QVQLVESGGGLVQAGGGHRLSCAASGRTFTYNAMGWYRQAPGKERELVAAITSGGSTNYADSVKGRYTISRDNAKNTVYLQMNSLKPEDTAVYYCAADGDDYTTTEFDYWGQGTQVTVSS”, the “polyreactivity (PSR sort gate)” value was “low polyreactivity”. For “QVQLVESGGGLVQAGGGLRLSCAASGRIFSRNVMGWYRQAPGKERELVAAISASGGSTYYADSVKGRFTISRDNAKNTVYLQMNSLKPEDTAVYYCAARRYPGRTATYYSWGQGTQVTVSS”, the “polyreactivity (PSR sort gate)” value was “high polyreactivity”. In the case of “QVQLVESGGGLVQAGGGLRLSCAASGRTFTYNAMGWYRQAPGKERELVAAITYDGGGTYADSVKGRFTISRDNAKNTVYLQMNSMKPEDSAVYYCNKGPDPGSFYDYWGQGTQVTVSS”, the “polyreactivity (PSR sort gate)” value is reported as “low polyreactivity”. For “QVQLVESGGGLVQAGGGLRLSCAASGSIFRSNTMGWYRQAPGKERELVAGISYSGGSTYADSVKGRFTISRDNAKNTVYLQMNSLKPEDTAVYYCARRVYSYDVLYFSYYYWGQGTQVTVSS”, the “polyreactivity (PSR sort gate)” value was “low polyreactivity”. With “QVQLVESGGGLVQAGGIHRLSCPASGIIFYYYAMGWYRHAPGKESELVAAISWSGGSTYYADSVKGRFTISRDNAKYTVYLQMNSLKPEDTAVYYCAAAFSPGWWSRHTYDYDYWVQGTQVTVSS” the “polyreactivity (PSR sort gate)” value was “high polyreactivity”.
